# Substitutions are numbered along the chain they refer to. Read-outs that look alike come from different tables or passages of the source.
# T1: His6-Vps45p (S. cerevisiae, UniProt P38932 1-577)
# T1 sequence (looked up): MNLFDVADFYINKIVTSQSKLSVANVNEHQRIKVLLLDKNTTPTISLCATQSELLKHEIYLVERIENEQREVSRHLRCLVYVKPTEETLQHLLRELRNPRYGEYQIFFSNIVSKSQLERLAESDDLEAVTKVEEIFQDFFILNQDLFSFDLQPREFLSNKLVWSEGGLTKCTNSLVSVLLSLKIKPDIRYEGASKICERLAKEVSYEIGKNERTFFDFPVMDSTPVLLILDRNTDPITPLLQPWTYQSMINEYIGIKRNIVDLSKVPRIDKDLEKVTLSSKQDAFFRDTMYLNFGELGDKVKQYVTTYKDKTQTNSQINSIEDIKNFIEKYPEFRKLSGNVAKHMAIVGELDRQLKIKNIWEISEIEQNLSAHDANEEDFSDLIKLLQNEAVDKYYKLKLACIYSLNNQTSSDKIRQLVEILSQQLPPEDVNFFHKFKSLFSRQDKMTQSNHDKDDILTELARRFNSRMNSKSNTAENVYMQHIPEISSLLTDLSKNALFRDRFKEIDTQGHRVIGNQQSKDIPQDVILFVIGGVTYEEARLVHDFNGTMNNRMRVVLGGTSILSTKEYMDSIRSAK
# T2: His6-Vps45p_(L117R) (S. cerevisiae, UniProt P38932 1-577, L117R)
# T2 sequence (looked up): T1 sequence (looked up) with L117R
# B1: Snc2p_(Δ2–19)-PrA (domain or fragment, S. cerevisiae, UniProt P33328 1-88, looked up)
# chain: MANPNSQNKTAALRQEIDDTVGIMRDNINKVAERGERLTSIEDKADNLAISAQGFKRGANRVRKQMWWKD
# B2: Snc2p-PrA (cytosolic domain of Snc2p fused to protein A) (domain or fragment, S. cerevisiae, UniProt P33328 1-88, looked up)
# chain: MSSSVPYDPYVPPEESNSGANPNSQNKTAALRQEIDDTVGIMRDNINKVAERGERLTSIEDKADNLAISAQGFKRGANRVRKQMWWKD
# B3: Snc2p_(cyto) (cytosolic domain of Snc2p, PrA tag removed by thrombin) (domain or fragment, S. cerevisiae, UniProt P33328 1-88, looked up)
# chain: B2 chain
# How the values were obtained:
# Assay in all cases: pull-down
# His6-Vps45p [1] = molecular target: T1, His6-Vps45p
# His6-Vps45p_(L117R) = molecular target: T2, His6-Vps45p_(L117R)
# His6-Vps45p [2] = molecular target: T1, His6-Vps45p; remark: listed apart in the source
binder,measurement,setting,value
B1,binding result,His6-Vps45p [1],binds
B2,binding result,His6-Vps45p_(L117R),binds
B3,binding result,His6-Vps45p [2],binds
